# Data taken from publication PMC7973640.
# Molecular target: PaxA T1-CDD di-domain construct (thiolation domain followed by the C-terminal docking domain of PaxA) (Xenorhabdus cabanillasii JM26)
# Test: SEC + NMR titration; analytical gel filtration and NMR titration experiments; complex in slow exchange on the NMR time scale; NMR at 293 K, samples in 50 mM sodium phosphate pH 6.5, 100 mM NaCl, 2 mM β-mercaptoethanol, 5% D2O
substance,measurement,value
PaxB N-terminal docking domain (amino acids 1-30 of PaxB followed by a non-native tyrosine) (domain or fragment),stoichiometry N,1
